Measured values published in patent US9739733B2, “Methods for monitoring tight clot formation” (T2 Biosystems, Inc., priority 2012, dated 2017).

Legend:
whole blood clot [1] = assay: T2Coagulation / TEG LY30 fibrinolysis in healthy patient blood; assay type: cell-based, human; details: kaolin runs
Description: Five different healthy patient samples were used to test whether T2Coagulation was sensitive to fibrinolysis. Addition of tissue plasminogen activator (TPA) was used to simulate fibrinolysis by adding it at two levels to healthy patient blood. TPA cleaves fibrin as it forms. It was observed that fibrinolysis can be detected within 10 minutes on T2Coagulation, which is less than half the time required for detection on TEG. For all five patients there was a clear difference between healthy and fibrinolytic samples.
There are several potential features that can be used for this correlation. Three that were investigated were the difference between (i) the minimum and maximum T2B values (FIG. 13), (ii) the average of the T2B values over the final 25 minutes of the T2B curves, and (iii) the T2B values at 10 minutes. All had correlations with R^2 values between 0.72 and 0.79. The correlation plots show a higher sensitivity of T2Coagulation for fibrinolysis than TEG. This can be seen by the groupings for the different levels of fibrinolysis in FIG. 13. The healthy patient samples are circled with the solid line. […] The T2Coagulation T2B term can be detected in as little as 10 minutes, which is much faster than the TEG LY30 term can be detected, indicating the utility of the T2Coagulation signal for more rapid measurement of fibrinolysis.

whole blood clot [2] = assay: T2MR whole blood fibrinolysis with spiked TPA; assay type: cell-based, human; details: 100 U/mL TPA, blood from a healthy donor
Description: The T2MR surface is also sensitive to whole blood fibrinolysis. To assess this, healthy donor samples were spiked with tissue plasminogen activator (TPA).
TPA was added at 100 U/mL to blood from a healthy donor. In the absence of TPA (see FIG. 27a) two stable peaks form at the expected clotting time. […] Both the instability and the distance between the final T2 peaks indicate sensitivity to fibrinolysis induced by the presence of TPA.
The T2MR effect on fibrinolysis was expressed in AU values (arbitrary units; see FIG. 27c) obtained by calculating the difference between the maximum and minimum T2 value observed for the clot signal (or T2B) in the T2 time curve.
Fibrinolysis was monitored by T2 magnetic resonance (T2MR) in five patient blood samples with and without the addition of TPA (100 U/mL) (FIG. 27c). […] All other samples required addition of TPA to induce fibrinolysis, as confirmed by the reference method.

[3] = test system: IIb/IIIa receptor of human platelets; assay: TEG clot strength (MA) of whole blood spiked with abciximab; assay type: cell-based; details: patient sample 29494
Description: The clotting of a whole blood sample was perturbed using the antithrombotic agent abciximab (ReoPro®). Abciximab is the Fab fragment of a human-murine monoclonal antibody that binds to the IIb/IIIa receptor of human platelets and inhibits platelet aggregation. Abciximab serves to inhibit the retraction of a clot during the clotting process.
Samples containing abciximab were prepared according to the following procedure and referenced in the application and Figures by a number corresponding to the concentration of abciximab in units of μg/mL.
1. Blood was drawn from normal donors into six citrate tubes. Normal donors must not have taken aspirin or any anti-platelet drug in the past two weeks.
2. The six tubes of blood were pooled and mixed gently by inversion eight to ten times. Samples were used within two hours of collection.
3. A abciximab solution (10 mg/5 mL) was diluted at a ratio of 1:4 using saline as a diluent to form “solution 1.”
4. The blood was spiked with solution 1 and saline according to Table 5
5. The samples were allowed to sit for at least five minutes prior to running any sample in a T2reader or Bruker minispec.
In a second experiment, five aliquots of patient sample 29494 were prepared with different concentrations (0, 2, 4, 8, and 0 μg/mL) of abciximab prior to initiation of the clotting process. The T2 relaxations times for the samples were measured in series, with each set of measurements lasting approximately 50 min. The first sample tested and the final sample tested contained no added abciximab. The collected T2 decay curves were processed using Inverse Laplace Transforms, as described in Example 18. […] The difference in the curve shape between the first sample run and the final sample run, both of which contained no added abciximab, may be evidence of an effect of sample age on the T2 time distribution. The corresponding TEG-determined MA values for these samples was 60.7, 61.4, 30.4, and 22.0, respectively.

[4] = test system: platelet activity in whole blood; assay: T2 relaxation spectra / 3D plots of clotting whole blood spiked with abciximab; assay type: cell-based, human
Description: T2 relaxation rate data was collected from CK blood samples drawn from healthy patients. For each sample, a series of T2 decay curves were measured over a period of 50 minutes. The decay curves were each processed using an Inverse Laplace Transform (ILT CONTIN) to provide an array of curves showing T2 intensity as a function of T2 time. […] FIG. 20 illustrates the 3D data sets for patient samples 29328 and 29350 collected on a Bruker minispec. […] At a time between 5 minutes and 30 minutes, the single water population diverged into two significant water populations. These two water populations correspond to the two components of the clot, i.e., the retracted clot and the serum surrounding the retracted clot. […] For some samples these two peaks were not entirely resolved. The correlation between the water populations and the components of the clotted sample was confirmed by separating the retracted clot from the surrounding serum and separately measuring the T2 data for these two components.
In a first experiment, four aliquots of patient sample 29488 were prepared with different concentrations of abciximab (0, 2, 4, and 8 μg/mL) prior to initiation of the clotting process. The T2 relaxation times for the four samples were measuring over the course of clot formation and the corresponding 3D plots were determined using the technique described in Example 13. […] This physical change is evidenced and quantified in the corresponding 3D plots (FIG. 21), showing fast exchange of water within the uniform sample at the highest concentration of abciximab.
In a second experiment, five aliquots of patient sample 29494 were prepared with different concentrations (0, 2, 4, 8, and 0 μg/mL) of abciximab prior to initiation of the clotting process. The T2 relaxations times for the samples were measured in series, with each set of measurements lasting approximately 50 min. […] The corresponding TEG-determined MA values for these samples was 60.7, 61.4, 30.4, and 22.0, respectively.

B1: Cathflo®: recombinant alteplase manufactured by Genentech (protein, UniProt P00750 36-562, looked up)
Tissue-type plasminogen …: SYQVICRDEKTQMIYQQHQSWLRPVLRSNRVEYCWCNSGRAQCHSVPVKSCSEPRCFNGGTCQQALYFSDFVCQCPEGFAGKCCEIDTRATCYEDQGISYRGTWSTAESGAECTNWNSSALAQKPYSGRRPDAIRLGLGNHNYCRNPDRDSKPWCYVFKAGKYSSEFCSTPACSEGNSDCYFGNGSAYRGTHSLTESGASCLPWNSMILIGKVYTAQNPSAQALGLGKHNYCRNPDGDAKPWCHVLKNRRLTWEYCDVPSCSTCGLRQYSQPQFRIKGGLFADIASHPWQAAIFAKHRRSPGERFLCGGILISSCWILSAAHCFQERFPPHHLTVILGRTYRVVPGEEEQKFEVEKYIVHKEFDDDTYDNDIALLQLKSDSSRCAQESSVVRTVCLPPADLQLPDWTECELSGYGKHEALSPFYSERLKEAHVRLYPSSRCTSQHLLNRTVTDNMLCAGDTRSGGPQANLHDACQGDSGGPLVCLNDGRMTLVGIISWGLGCGQKDVPGVYTKVTNYLDWIRDNMRP
modifications: alteplase
notes: recombinant alteplase manufactured by Genentech
degree of fibrinolysis (whole blood clot [1]; 60 ng/mL): partially fibrinolytic | degree of fibrinolysis (whole blood clot [1]; 118 ng/mL): fully fibrinolytic

B2: TPA: tissue plasminogen activator (protein, UniProt P00750 36-562, looked up)
Tissue-type plasminogen …: SYQVICRDEKTQMIYQQHQSWLRPVLRSNRVEYCWCNSGRAQCHSVPVKSCSEPRCFNGGTCQQALYFSDFVCQCPEGFAGKCCEIDTRATCYEDQGISYRGTWSTAESGAECTNWNSSALAQKPYSGRRPDAIRLGLGNHNYCRNPDRDSKPWCYVFKAGKYSSEFCSTPACSEGNSDCYFGNGSAYRGTHSLTESGASCLPWNSMILIGKVYTAQNPSAQALGLGKHNYCRNPDGDAKPWCHVLKNRRLTWEYCDVPSCSTCGLRQYSQPQFRIKGGLFADIASHPWQAAIFAKHRRSPGERFLCGGILISSCWILSAAHCFQERFPPHHLTVILGRTYRVVPGEEEQKFEVEKYIVHKEFDDDTYDNDIALLQLKSDSSRCAQESSVVRTVCLPPADLQLPDWTECELSGYGKHEALSPFYSERLKEAHVRLYPSSRCTSQHLLNRTVTDNMLCAGDTRSGGPQANLHDACQGDSGGPLVCLNDGRMTLVGIISWGLGCGQKDVPGVYTKVTNYLDWIRDNMRP
clot stability (T2MR peaks) (whole blood clot [2]): unstable after 20-30 minutes

B3: abciximab (antibody, chains of the INN, looked up, V domains shown)
VH: EVQLQQSGTVLARPGASVKMSCEASGYTFTNYWMHWVKQRPGQGLEWIGAIYPGNSDTSYIQKFKGKAKLTAVTSTTSVYMELSSLTNEDSAVYYCTLYDGYYVFAYWGQGTLVTVSA
VL: EIVLTQSPVTLSVTPGDSVSLSCRASRDISNNLHWFQQTSHESPRLLIKYASQSMSGIPSRFSGSGSGTDFTLSINSVETEDFGMYFCQQTNSWPYTFGGGTKLEIK
modifications: Fab
TEG-determined MA ([3]; abciximab 2 μg/mL): 61.4 | TEG-determined MA ([3]; abciximab 4 μg/mL): 30.4 | TEG-determined MA ([3]; abciximab 8 μg/mL): 22.0 | clot associated and serum associated T2 signal ([4]; 8 μg/mL Reopro®, T2reader): reduces the signal intensity of the clot associated signal and shifts the serum associated signal to lower T2 values | distribution of T2 signals within the initial water population ([4]; at 0.1 minutes, abciximab 2, 4, 8 μg/mL, patient sample 29494): narrower distribution of T2 signals | retracted clot and serum water populations in 3D plot ([4]; highest concentration of abciximab (8 μg/mL), patient sample 29488): no longer two phases visible within the clot
